Assay results: the NTF2 design screens of Basanta et al. (2020)

Experiment: protease stability score; higher = more stable; yeast display proteolysis, trypsin and chymotrypsin;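 also: relative to predicted unfolded state with 0 unfolded-like and 1 meaning tenfold more protease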

DEKTEISEFALELFKESYDTGDEHTINRLADPHYRVVIGDKDLIGMEWLEHVIRHHKERVDHYRDVTVKDIKVIGNKVIADIRSHVHVDGQERDLDIDLVVFKINGRWRIKMIKID
protease stability score: 1.15

DEKTEIVSRIMIVFFHALLTGDWETLKKNADPHVKLEAEGRKSHGMEELVRWIHEEIKRIPGIRFELKRYDVQGDKVEIEGRVRINGVEFELIIESVIVDGKLKSIREEWR
protease stability score: 1.41

DEKTEKEQRWFEEILHAILTGDEEFLLRNADPNTRSHFNGRDVHGMELLSEIWTKHVEDLGFDHAHIRSVKVFDGRFILNMQIHVNGVELDVHLIYDVVDGVVKRVIVETHKH
protease stability score: 0.442

DEKTEQSREIIELLLKALQTGDEDTLTELLDPHVKIHIGDKDYHGREEVSRLLQEFWDRFKNARIEIHDYRDINGRVHVDLRHVVGDKTYTSKWNILKVNGRWYIEQIHVH
protease stability score: 2.07

DEKTKEVEHLTEYLREVWETGDFESLHEMMDPHVRVDIGDKHVHGREAVAHHFRKHLENWGVTRFRIEFHVRDVRDINGVVHLDTELRILFDGVLITMRTRFIIEKINGRWVFREVIVR
protease stability score: 2.63

DEKYKRVEQAVRIYLELISTGDEEMISHYVDPNVQAEVGDYEHHGMEEFIKVVSRVDYLEHSEWKDWRYVDGRIEIEGHLYGKINGKRDVLDIRIIASKVNGKWRLHKVTIK
protease stability score: 1.41

DELAEYAKEVIERIDHSITTGDERSVKRLLDPDVKLLIGDKELHGREDWEEWMKRIDHVSVRDSRIKEVKVYDGRLRIDGHKRMYYFNENEEREHTTRVVIILLKIDGRWVMHSVHFI
protease stability score: 1.4

DELDDITEHLLHRFVDSLITGDEDLLEKYADPNAKLIIEIGDKRIERHGMHRFYELLLRFKNVKLDVKEIHVQGDKATIESTLQYGDKKHDTRLEVEFYDGRLKIIRWEIR
protease stability score: 2.25

DELDEELHKLFEKYLRSHLTGDFHSLERLLDPNARLIWIVDGKMINIHGREDISRFLREWEEEARHHHHELKEVDTQGNYFHSRMHEDGHINGVRRKIHVTHNIVMIDGKLESITHIII
protease stability score: 1.08

DELDEFREYWIRYVEEVFRTGDFEKHLSLMDPNARVLVDGKELHGREFLEVHMRRIKNATVRDVHHHDMEIQGDKVTLDVDVHVNVNGRDVDKHVLIISEKVNGRWISRSLEVR
protease stability score: 0.628

DELDEILVRIAEMVVEIWETGDWEWLEHLLDPHVRLQIGDKEVHGREAIREMIHELLNKLPNIRSHIRLREVRYYNGKAHFNTELRLHINGRDLRSRVRYEILVVDGRVRSMHVEIR
protease stability score: 1.09

DELDEQVEELARDIIRNWHTGDEERWEHLADPHVRVTIDGRLHIGREEAMKMLRHWLKRIDHITVNIRRIHVFNGRSEVHSELTMHVGDKNIHHHEIINIVIVDGRIHNQEIHLK
protease stability score: 1.39

DELDHDIERNLRLWLEALYTGDFEFLLRLVDPNVRMHINGVNDHGWKFAEFLIRRADHSEMEIRIRHVHEVNGVLRMDGEVKFDIRQGDKSREKHIEVHMVLMKVNGQWFVKSFEFK
protease stability score: 1.47

DELDHEIRHVLHIIHHLLLTGDEEIFEEMADPDPRLDLVYGDKKIHVHGWKNILDMLKRLLDHWRIRHVEIKRITTQGNKAHLDTRSNLIINGRELIVIIELNVVTFNGVMKDMRIKIV
protease stability score: 1.65

DELDKLAHIMMEEILRNWVTGDEDRHNELADPTVRMHSIVGDKHLEIHGREIFTEFLKRIKNVTFEIRLTDLKIQGEKAHSHTRLILRFDGQQVERDTEVTIIVINGRVKDVSIIIR
protease stability score: 1.06

DELDKRTREFTRLFLEWEETGDFHTMLNFLDPNARVDVNGVHLIGREKMVEHFLTEHERIDHREWHLRRIHYYDGRSDIDGHITLFVDGQEIHIRVHVIFFVVDGRMHMVEKRII
protease stability score: 0.751

DELDRISTRLADLFIHLVETGNWEFLKELLDPDVRMIIGDFELVGRETIIEFFEKLERHLGVDHSEIVIERRHSQGEKAELHTRLIVRVNGRKRVIDTRLELHWVDGRLKEINIHEH
protease stability score: 1.17

DELDRLAEDWVKIIIHSLKTGDEDTLHKMADPNYQVEIGDFRFHGRERWIHVLREHREELGVTRVHSELHELHTFNGRAVSVVDLHVNGVTLHVIVFVRKVNGRWQDTSQVYKYE
protease stability score: 0.491

DELDRLMRHISKLWVELLLTGNEEITSHLADPDARLHINGRDTIGREEYIRMYHEWLNEIRIRDFHIHSIKTQGNKANTDSELDLEVNGKRLDLRITIIILNINGRMKSVKVEVI
protease stability score: 0.99

DELDRRAKKMLRIWLEERFTGDEETVSKLADPDTRTQIHVGDKDLVSIGMESVSEFLRRMIHHWRIEHVKVKDTKVFDGVAHLHGEIHGNIDGQRVDVRLEVRVVVINGRIHSMSEEFT
protease stability score: 1.61

DELDRTVEEVSRYFMRNYITGNEERLWEMADPHVKFISEHHESHGMEEHKKFLEEAGITNVKFDIHDQKVFNGVVVVNGKIHVNGRTVDVRLISEKFDGRWHLHIIRVD
protease stability score: 1.15

DELDSILEEFARVFMQNLETGDEDSSRHYLDPHYRVELDIGDWTIQMHGWRSDHIRRRYLGADHERILIRDYRVYNGRIRVEGQMDITVNGKRVTYHTEFILHVVNGKATRVSMKFE
protease stability score: 0.707

DELEDDSRRAMETLIEIEKTGDWDLMYQLADPHVKLDINGRIIHGRDEFERRIHEHLTELGIKHHHVKHFQIRIVDGRMEVRLDGILRFNGKDLDVEIVLIVLKVNGRWLLEHSSVKYK
protease stability score: 1.38

DELEDLAQKTHELFVQHYRTGDEDHLRHLLDPNAIMEIGDYHFIGREEILKFLVHWRIHRSEIKHLHVQGDKAEQEVEVDIEIGDKRFRTETHSIWIKINGKWFMHDFTVK
protease stability score: 2.17

DELEEDSKKFFEILIKAYWTGDFTTLSRMMDPHVRNDINGRDIHGMEELSRVETEISRKYGADHFDFHIKDFKVQGEKLTVHGRIIIRVNGKTFEHDEIFYLIKIDGKWTWESVEVL
protease stability score: 0.989

DELEEDVRSSLKVLLHSHRTGNEELNEKMADPNARVTVDGVEFHGREEMVHWISHIRVERFILRSVHFQGDKLHIDGESDGVVNGRRWRRRTHIIELKVDGKWVLKSLIFE
protease stability score: 1.46

DELEEELDQFQKLMVESSKTGDEDTEKKLADPNVRVDINGVILHGMENFVEFMRHWRIKHIHNKEVRFINGRAHVTGDVEGHVNGRDTRTRVTLIIIKINGRWFIEEVKFD
protease stability score: 1.37

DELEEELETAERISHEVLDTGDERIWSKLIDPNARLQIGDKEYHGREEVQRFFLEFGFKVSDIHSVKVQGDKIHVDTRSRVDGKEIELQLNSEKINGKWVLRHIHVWKR
protease stability score: 1.28

DELEEETERMFRIIIEFMLTGDWKTLYKLFDPNMLMIINGKELHGRESMATALKFWLRHIREDDIKIHHVELQGEKAISDGRSRGEIGDKEQTRKVHIEVIVINGRVHHVRVDIH
protease stability score: 0.819

DELEEETREAIRLMFESVKTGDEDSIKHLADPHVRVLINGRDDHGMKILHHLFSRFKNLTIELKRVHVYGEKAEVHTNWHINGRYYHVIWILIKINGRWFIESIEIH
protease stability score: 1.61

DELEEETRFILEYLRHSWKTGDWRLESRMADPDVRLDVDGKHLHGREMVSHFAKRLSERVDHSEFIERDLRIQGNKIELHGELILRFNGVEVHRELHLHISKVNGRWVLKDIRIG
protease stability score: 0.831

DELEEETRRFAKHWVESLLTGDEDKLSRLMDPNVILDVNGREHIGWERAVHHLSRLLKELGAKHINVRLHELRIYDGVAEIDSRLQIIVGDKTEEHNVKLVITKVDGRWVVKSITIH
protease stability score: 1.95

DELEEEVLKALDEWLRSLATGDFDTLTHLMDPNAKTHIGDKHYHGRELLEIWIKRVDHVHRLHFRLRRYRVVGNKVELDGELEIDGEINGRHTNHSEDIRIVLHKIDGRWVVESMIIR
protease stability score: 2.53

DELEEEVMEFIRVFIHLLNTGDEDHLHELIDPNVRVEDENEEKHGRDTVEHMQRFFKNLRVTDLKVETFEVQGEFVHVHVDIEERVGDKHFHYKVLYIILKVDGRWLMHQVRFH
protease stability score: 2.12

DELEEFLHTIMELVVRNMFTGDEDSFNNLADPDVKSHINGKNAVGREEIIRVWKEWVEEIRTTHYDIHDFTIIGDKAHSDTRVDGTFNGVRDTIDTRVIVLVVDGRLKSLEIRMH
protease stability score: 0.986

DELEEILEELFRRMLEWLRTGDEEAMSKLADPHYKLLWNGREHVGREVILERLEKINQHLRIRHIHIHEIRFIDGRVESDTRVDGEVNGRRTEYTQKVIIFIVNGRFKFLEIQLR
protease stability score: 1.71

DELEEISDTALKMFEHVVKTGDWRELEKLLDPNVKIYYNGREYHGREEAVRIWKEILDRFGADHFELRLRHKHVQGDKVSYHIELRLHYDGKTHHTFMRIIFLKVDGKWLEHELHIH
protease stability score: 2.38

DELEEISRRAQELSLRLFHTGDERSWERLVDPHAKLDVNGVDVHGRELVHKFFERNIRELGIKHIHLEHEEVQGNKVKLIMHINVNGVERRLVIIAEKIDGRWVLREHKEE
protease stability score: 0.464

DELEEKIHRWAELFLKMVLTGNEEFFRHLFDPDARSDINGVRVIGREDMDEVLKFWLDHLRFEHWVYTEVRIYDGRMEVHTRHDIDVNGVLYRRQMRIHLDVVDGRVKEASITRE
protease stability score: 1.37

DELEELAEKIIRRLSELLLTGDFRELERFADPHTRVDINGKEFHGREFFSKLWLEMVRRFDHIEVHVHHMEIQGDKVFIDSRLHLLQGDKKEDREVLFILRKIDGRWILTVWKIR
protease stability score: 2.32

DELEELEKEAIKESEDILRTGDEERILRLADPNVRVDIDGVVRHGREWWTRLFSDELRKFKGARIRLKEIRSFDGRIRIDTTLEVDGVTRDMYVISEKVNGRWIIRSIHYE
protease stability score: 1.33

DELEELIRKLAELFFEILRTGDEDKLRKLLDPHAKFTFIINGVIIDSIGRDFILKLHEDLWRRIKNVRMEYERVEVQGDKAYFRTRMNFNGKETETNLHLIIVDGKLKQESWEIE
protease stability score: 0.738

DELEELLQRAIKMFKDTNETGDEETLEKLLDPNVRYQVGDKEFHGREAIHVIFRRADHWKEMRIRSFRVYDGRAELDVEEVIFYNGVEIRTRTRIHFRKVDGRWYVHSIEIS
protease stability score: 1.53

DELEENSRLALELWINSFLTGDEDTTEKMADPHVRLIIDGKLFHGREAFSEHMLERSLRADHTEVRLHDRKIVGDKLIIDTRIHSHVNGVDVTLNVLLIMHKYDGRWRIHSVEIH
protease stability score: 1.23

DELEETAERMMKQFTDMWRTGDEEYFWRLADPHVRVNIDGVTRIGREESSEMFERWIRHIRLKSVHIEEVEIQGEKSHSDGRLNEIVDGKEEIVHVTINLIVINGRIHSVEFERE
protease stability score: 0.765

DELEEVIQKVAEMWVRLYKTGNEEIIHKLADPDVRAVYNGVENIGMHRHVELLHRLLEEIRIHDIRINRIEVQGEKAHNDTQVHFIVGEKRETRETHIEIVVVNGVIKEVVIRIH
protease stability score: 0.629

DELEEYLKRLAKEILELMQTGDEDRWMKLADPNVRIDVNGVELHGRETWVERMEDILREIRSEYRIRHVHSQGNWARVDGELDIKVNGRIIRHKTEFIVVTVNGRIREEKFHIR
protease stability score: 0.335

DELEHDAREYFRILEESIRTGDEDLFRKLADPNVRLMIDGKNWIGWESYHEELRQYDHRHVDMRIDHIEVVDGRVHIDGRIEVTITIDGVEHRLNHKLRVEIEKIDGRWHMKFILVE
protease stability score: 1.67

DELEHFALKFAEEWLQHYLTGNEEMISKLHDPHVKLHIGDKDLIGWEKFEEFLRETLSRVDHLHFNIRSVQSQGNKIVFDGKYIVIQGDKRYEFDIEFHIVVFNGRVHRIHYESH
protease stability score: 1.58

DELEHFLLEILRELAHALETGDEERLTDLIDPHARINVDGVEIHGMDHWRELLHQIRFSIEDMHITHVEVQGDKIIIHGRVHVSNEVDGVENRSETHEIWYMKKFDGRWRVTTIEVK
protease stability score: 1.3
